Values of other authors in article PMC9147092.
pKd: −log10 of the molar value. Where two headings read alike, the source gives them in different places.

Assays:
BiP (Homo sapiens) [1] = target: BiP (Homo sapiens) (UniProt P11021)
BiP (Homo sapiens) [2] = target: BiP (Homo sapiens) (UniProt P11021); remark: listed apart in the source
BiP (Homo sapiens) [3] = target: BiP (Homo sapiens) (UniProt P11021); remark: listed apart in the source
ERdj2 (Homo sapiens) = ERdj2 (Homo sapiens) (UniProt Q9UGP8)
UniProt Q9UGP8, sequence (Q9UGP8 whole entry): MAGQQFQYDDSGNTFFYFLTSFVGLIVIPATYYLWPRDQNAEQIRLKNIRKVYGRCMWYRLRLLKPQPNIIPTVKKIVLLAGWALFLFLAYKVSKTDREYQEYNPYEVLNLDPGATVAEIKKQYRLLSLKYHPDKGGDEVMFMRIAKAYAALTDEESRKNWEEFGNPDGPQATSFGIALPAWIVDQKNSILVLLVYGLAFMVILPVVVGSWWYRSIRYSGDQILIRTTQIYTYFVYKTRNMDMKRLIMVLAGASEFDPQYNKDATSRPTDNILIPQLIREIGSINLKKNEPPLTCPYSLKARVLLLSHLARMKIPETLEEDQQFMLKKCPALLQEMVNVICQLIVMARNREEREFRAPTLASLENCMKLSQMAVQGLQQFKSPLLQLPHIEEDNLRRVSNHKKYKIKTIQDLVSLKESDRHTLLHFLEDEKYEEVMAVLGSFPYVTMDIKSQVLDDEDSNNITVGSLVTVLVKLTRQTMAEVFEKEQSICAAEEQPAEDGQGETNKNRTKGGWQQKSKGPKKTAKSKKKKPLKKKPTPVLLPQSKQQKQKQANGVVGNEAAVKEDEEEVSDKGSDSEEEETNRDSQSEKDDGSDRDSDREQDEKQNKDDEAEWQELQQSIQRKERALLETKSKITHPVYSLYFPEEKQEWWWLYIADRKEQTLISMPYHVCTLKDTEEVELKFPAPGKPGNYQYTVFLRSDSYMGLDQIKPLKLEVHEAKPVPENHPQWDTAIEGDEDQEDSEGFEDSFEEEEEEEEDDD

UniProt P11021, sequence (P11021 19-654): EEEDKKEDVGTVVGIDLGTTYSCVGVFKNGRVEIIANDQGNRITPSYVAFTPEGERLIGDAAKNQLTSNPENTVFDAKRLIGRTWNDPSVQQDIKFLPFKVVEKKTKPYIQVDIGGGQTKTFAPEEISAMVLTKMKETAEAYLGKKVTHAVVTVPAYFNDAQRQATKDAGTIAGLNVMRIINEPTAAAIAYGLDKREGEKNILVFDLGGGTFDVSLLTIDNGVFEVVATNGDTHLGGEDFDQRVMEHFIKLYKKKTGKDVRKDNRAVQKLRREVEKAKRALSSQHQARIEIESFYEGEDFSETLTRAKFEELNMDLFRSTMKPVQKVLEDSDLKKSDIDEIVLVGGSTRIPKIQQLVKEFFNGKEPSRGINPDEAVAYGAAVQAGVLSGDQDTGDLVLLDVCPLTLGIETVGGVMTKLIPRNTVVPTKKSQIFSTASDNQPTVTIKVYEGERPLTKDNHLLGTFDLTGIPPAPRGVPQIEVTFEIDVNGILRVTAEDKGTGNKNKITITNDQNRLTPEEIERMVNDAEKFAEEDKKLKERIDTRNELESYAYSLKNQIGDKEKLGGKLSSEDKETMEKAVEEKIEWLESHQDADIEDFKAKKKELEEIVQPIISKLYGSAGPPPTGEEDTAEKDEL

ERdj1 (from UniProt Q96KC8)
pKd (BiP (Homo sapiens) [1]): 6.24

ERdj6 (from UniProt Q13217)
pKd (BiP (Homo sapiens) [2]): 5.30

PERK luminal domain (from UniProt Q9NZJ5)
pKd (BiP (Homo sapiens) [3]): 6.08

Sec62 (from UniProt Q99442)
pKd (ERdj2 (Homo sapiens)): 8.30
